Assay results published in patent US20080095768A1 (PDL BIOPHARMA, published 2008).

Target: T1, human CS1 (CD2-subset1) (human, UniProt Q9NQ25 23-335)
T1 construct: Endogenous CS1 on primary myeloma cells / CD138+ tissue plasma cells; also called SLAMF7; CRACC
Assay: flow cytometry on primary myeloma cells and IHC on normal tissues, using HuLuc63 as the detecting antibody
Experimental: Gene expression was assessed using an Affymetrix GeneChip array. Protein expression was measured by flow cytometry, and immunohistochemistry (IHC), using HuLuc63, a novel humanized anti-CS1 mAb. HuLuc63-mediated lysis of myeloma cells via antibody dependent cellular cytotoxicity (ADCC) was measured by ⁵¹Cr-release.
CS1 mRNA was detected in CD138+ purified plasma cells from >95% of healthy donors, newly diagnosed myeloma patients, and those with relapsed myeloma (FIG. 1). […] Finally, we determined that HuLuc63 could induce killing of myeloma cells using purified allogeneic NK cells (FIG. 2). […] Our data support the potential clinical utility of CS1-targeted therapy.

B1: HuLuc63 (antibody, IgG1, V domains shown)
VH: EVQLVESGGGLVQPGGSLRLSCAASGFDFSRYWMSWVRQAPGKGLEWIGEINPDSSTINYAPSLKDKFIISRDNAKNSLYLQMNSLRAEDTAVYYCARPDGNYWYFDVWGQGTLVTVSS
VL: DIQMTQSPSSLSASVGDRVTITCKASQDVGIAVAWYQQKPGKVPKLLIYWASTRHTGVPDRFSGSGSGTDFTLTISSLQPEDVATYYCQQYSSYPYTFGQGTKVEIK
notes: Humanized recombinant monoclonal IgG1; also called HyLuc63; humanized anti-CS1 mAb
binding result: binds
